We go through 4 molecules from patent US20210032351A1 (XDCEXPLORER SHANGHAI, published 2021).

The target of assay [1] is T1, human EGFRvIII-hFc protein (human, UniProt P00533 25-645).
T1 construct: extracellular domain; also called immunogen A; hFc-tagged EGFRvIII protein; not shown: human IgG Fc fragment (hFc) of the pCpC vector
In words: ELISA, EGFRvIII-hFc coated. The method, then: (§1) The purified immunogen A (EGFRvIII-hFc) obtained in example 1 (for the preparation method, see step (I) in example 1) is diluted with PBS to a final concentration of 1.0 μg/mL, and then added to a 96-well ELISA plate at 100 μl/well. The plate is sealed with a plastic film and incubated at 4° C. overnight. The next day, the plate is washed twice with a plate washing solution [PBS+0.01% (v/v) Tween20], and added with a blocking solution [PBS+0.01% (v/v) Tween20+1% (w/w) BSA] for blocking 2 hours at room temperature. […] The plate is incubated for 2 hours at 37° C., and then washed 3 times with the plate washing solution [PBS+0.01% (v/v) Tween20]. The plate is added with an HRP (horseradish peroxidase) labeled secondary antibody (purchased from Sigma), incubated at 37° C. for 2 hours, and then washed 3 times with the plate washing solution [PBS+0.01% (v/v) Tween20]. The plate is added with 100 μl of TMB substrate/well, incubated for 30 minutes at room temperature, and then added with 100 μl of stopping solution (1.0N HCl)/well. A450 nm value is read using an ELISA plate reader (SpectraMax 384plus, purchased from Molecular Device), and the results are shown in FIG. 11 and table 19.
In general terms: An ELISA detects its analyte on a solid surface through an enzyme-linked reagent.

Assay [2] has as its target T1, human EGFRvIII-hFc protein. In words: ELISA, EGFRvIII-hFc coated. The procedure:
The purified humanized anti-EGFRvIII antibody obtained in example 12 is reacted with a human EGFRvIII-hFc protein.
as §1, with “Device).” for “Device), and the results are shown in FIG. 11 and table 19.”
This is another data set of the same source.

Assay [3] addresses T2, human EGFRvIII protein on the cell surface (human, UniProt P00533 25-1210).
T2 construct: whole, on cells; the cell line is named under assay; also called hEGFRvIII; U87MG-hEGFRvIII
In words: FACS on U87MG-EGFRvIII cells. The procedure:
The preparation of U87MG-EGFRvIII required for FACS detection is as described in the preparation of the immunogen B in example 1. Normal human primary hepatocytes are purchased from BioreclamationIVT, and A431 tumor cells are purchased from ATCC. The recovered hepatocytes are directly used for FACS detection, and the recovered U87MG-EGFRvIII and A431 cells are subjected to an expanded culture to 90% confluence in a T-75 cell culture flask; the medium is sucked out, and the cells are washed twice with a HBSS buffer (Hanks Balanced Salt Solution) (purchased from Invitrogen), and then treated with an enzyme-free cell dissociation solution (Versene solution: purchased from Life Technology) and collected. The cells are washed twice with the HBSS buffer and are counted, and then the cells are diluted with the HBSS buffer to 2×10⁶ cells/ml, added with 1% goat serum blocking solution, with the percentage being the mass percentage, and incubated on ice for 30 minutes, and then centrifugally washed twice with the HBSS buffer. The collected cells are resuspended to 2×10⁶ cells/mL with an FACS buffer (HBSS+2% FBS, with the percentage being the volume percentage), added to a 96-well FACS reaction plate at 100 μL/well, then added with 100 μL/well of the purified EGFRvIII antibody (samples to be tested) obtained in example 12, and incubated on ice for 2 hours. The plate is centrifugally washed twice with the FACS buffer, added with 100 μL/well of a 1:1000 diluted fluorescence (Alexa 488) labeled secondary antibody (purchased from Invitrogen), and incubated on ice for 1 hour. The plate is centrifugally washed 3 times with the FACS buffer, added with 100 μL/well of a fixing solution [4% (v/v) paraformaldehyde] to resuspend the cells, and centrifugally washed twice with the FACS buffer after 10 minutes. The cells are resuspended in 100 μL of the FACS buffer, and the results are detected and analyzed by FACS (FACS Calibur, purchased from BD). Data analysis is performed by using the software (CellQuest) to obtain the mean fluorescence intensity (MFI) of the cells. Data is further analyzed by using the software (GraphPad Prism5) to perform data fitting and calculate EC50.

Assay [4] concerns the target T2, human EGFRvIII protein on the cell …. The experiment in a line: FACS on U87MG-hEGFRvIII cells.
For assay [5], the target named is T3, human wild-type EGFR protein on the cell surface (human, UniProt P00533 25-1210).
T3 construct: whole, on cells; Endogenous on A431, HEB, U87MG cells and normal human primary hepatocytes; transfected on CHOk1-EGFR cells; The cell is named under assay; also called A431; HEB
The experiment in a line: FACS on A431 cells; A431 cells (large amount of wild-type EGFR on the surface). The method, then: The cells are washed twice with the HBSS buffer and are counted, and then the cells are diluted with the HBSS buffer to 2×10⁶ cells/ml, added with 1% goat serum blocking solution, with the percentage being the mass percentage, and incubated on ice for 30 minutes, and then centrifugally washed twice with the HBSS buffer. The collected cells are suspended to 2×10⁶ cells/mL with an FACS buffer (HBSS+1% BSA, with the percentage being the mass percentage), added to a 96-well FACS reaction plate at 100 μL/well, then added with 100 μL/well of the purified EGFRvIII antibody (samples to be tested) obtained in example 2, and incubated on ice for 2 hours. The plate is centrifugally washed twice with the FACS buffer, added with 100 μL/well of a fluorescence (Alexa 488) labeled secondary antibody (purchased from Invitrogen), and then incubated on ice for 1 hour. The plate is centrifugally washed 3 times with the FACS buffer, added with 100 μL/well of a fixing solution [4% (v/v) paraformaldehyde] for suspending the cells, and centrifugally washed twice with the FACS buffer after 10 minutes. The cells are suspended in 100 μL of the FACS buffer, and the results are detected and analyzed by FACS (FACS Calibur, purchased from BD). Data analysis is performed by using the software (CellQuest) to obtain the mean fluorescence intensity (MFI) of the cells. Data is further analyzed by using the software (GraphPad Prism5) to perform data fitting and calculate EC50. […] A431 cells (human epidermal cell cancer cell lines) have a large amount of wild-type EGFR protein expressed on the surface thereof. […] U87MG cells (human glioma cell lines) have a small amount of wild-type EGFR protein expressed on the surface thereof, while HEB cells (human glioma cell lines) have a high level of wild-type EGFR protein expression on the surface thereof.

The target in assay [6] is human wild-type EGFR protein on the cell surface (human) (UniProt P00533). In words: FACS on A431 tumor cells.
For assay [7], the target named is human EGFRvIII-hFc protein (human) (UniProt P00533). The experiment in a line: ELISA, EGFRvIII-hFc coated.
In assay [8] the target is human EGFRvIII protein on the cell surface (human) (UniProt P00533). The experiment in a line: FACS on U87MG-EGFRvIII cells.
Assay [9] has as its target human wild-type EGFR protein on the cell surface (human) (UniProt P00533). In words: FACS on normal human primary hepatocytes.
Assay [10] has the same target. The experiment in a line: FACS, MFI on A431 cells over MFI on normal primary hepatocytes. (In general: Flow cytometry measures light scatter and fluorescence of single cells or particles in a stream.)
Assay [11] concerns the target EGFR-his (purchased from Sino Biological) (UniProt P00533). The experiment in a line: BLI (OctetRED), antibody on anti-human Fc (AHC) biosensor, EGFR-his in solution.
The target in assay [12] is EGFRvIII-his (purchased from Sino Biological) (UniProt P00533). In words: BLI (OctetRED), antibody on anti-human Fc (AHC) biosensor, EGFRvIII-his in solution.

B1: Chimeric antibody 63A10 (antibody, human IgG1, V domains shown)
VH: QVQLQQSGAELARPGASVKMSCKASGYTFISFTMHWVKQRPGQGLEWIGYINPNSGYTKYNQKFKDKATLTAGQSSSTAYMQLSSLTSEDSAVYYCTRGGGRGFAYWGQGTLVTVSA
VL: DILMTQSPSSMSVSLGDTVTITCHASQDINSNIGWLQQKPGKSFKALIYHGTNLEDGVPSRFSGSGSGADYSLTISSLESEDFADYYCVQYAQFPFTFGSGTKLEIK
notes: also called c63A10A7; chimeric antibody c63A10A7
For B1, in assay [1], the “OD450 nm at 0.0001 nM antibody” value came to 0.07 OD450, the “OD450 nm at 0.001 nM antibody” value worked out at 0.11 OD450, the “OD450 nm at 0.01 nM antibody” value came to 0.37 OD450 and the “OD450 nm at 0.1 nM antibody” value was found to be 1.05 OD450. For the same molecule, in assay [1], the “OD450 nm at 1 nM antibody” value came to 3.33 OD450, the “OD450 nm at 10 nM antibody” value is 3.55 OD450 and the “OD450 nm at 100 nM antibody” value worked out at 3.55 OD450. In assay [2], the concentration giving a half-maximal response (EC50) (usually the concentration that produces a half-maximal response) came out at 0.22 nM and the “Maximum OD450 value” is 3.6 OD450. Also, in [3], the concentration giving a half-maximal response (EC50) worked out at 3.8 nM and the “Maximum mean fluorescence intensity” value amounted to 11600 MFI. In addition, in [4], the EC50 turned out to be 2.2 nM. Besides, in assay [5], the EC50 was determined as 696 nM.

B2: Chimeric antibody 64F1 (antibody, human IgG1, V domains shown)
VH: QVQLQQSGAELARPGASVKMSCKASGYTFSSYTMHWAKQRPGQGLEWIGYINPSSGYTKYNQKFKDKATLTADKSSSTAYMQLSSLTSEDSIVYYCARGGGRGFAYWGQGTLVTVSA
VL: QIVLTQSPAIMSASPGERVTMTCSASSSVSYMYWYQQKPGSSPRLLIYDTSNLASGVPVRFSGSGSGTSYSLTISRVEAEDAATYYCQQWSSYSLTFGAGTKLELK
notes: also called clone 64F1F8
For B2, in assay [1], the “OD450 nm at 0.0001 nM antibody” value was found to be 0.08 OD450, the “OD450 nm at 0.001 nM antibody” value came out at 0.11 OD450, the “OD450 nm at 0.01 nM antibody” value was 0.35 OD450 and the “OD450 nm at 0.1 nM antibody” value worked out at 2.23 OD450. In assay [1], the “OD450 nm at 1 nM antibody” value was 3.72 OD450, the “OD450 nm at 10 nM antibody” value was found to be 3.78 OD450 and the “OD450 nm at 100 nM antibody” value came to 3.7 OD450. Further, the EC50 in [4] came to 2.1 nM. The same molecule showed a half-maximal effective concentration (EC50) in assay [5] of 180 nM.

B3: Humanized antibody h75G7C6-1 (antibody, human IgG1, V domains shown)
VH: EVQLVQSGAEVKKPGASVKVSCKASGYTFTDYNMDWVKQAPGQGLEWIGDINPNNADTIYNQKFKGRVTLTVDKSTSTVYMELSSLRSEDTAVYYCARGDYDGYYPVYYAMDYWGQGTTVTVSS
VL: EIVLTQSPATLSLSPGERATLSCRASSSVSSSYLHWYQQKPGQAPRLLIYSTSNLAAGIPARFSGSGSGTDFTLTISSLEPEDFAVYYCQQYSGYPLTFGGGTKVEIK
Consider B3, for which the MFI in assay [6] was 9780 MFI. In [7], the EC50 is 0.49 nM and the Maximum OD450 value was determined as 3.41 OD450. Besides, in [8], the 50% effective concentration (EC50) is 4.93 nM and the Maximum mean fluorescence intensity worked out at 18300 MFI. The molecule further had an MFI in assay [9] of 277 MFI. The molecule further showed a Selective window (MFI A431/Hepatocytes) in assay [10] of 35.5 fold. For the same molecule, in assay [11], the dissociation constant Kd (usually a measure of binding affinity in units of concentration) is 205 nM; the off-rate (koff) (as a rule, the first-order rate constant of dissociation) came to 0.00353 s⁻¹; the on-rate (kon) – broadly, the second-order rate constant of association – came to 17200 M⁻¹ s⁻¹. In assay [12], the Kd was determined as 1.71 nM, the koff was found to be 0.000141 s⁻¹ and the association rate constant (kon) is 82800 M⁻¹ s⁻¹.

B4: Humanized antibody h75G7C6-2 (antibody, human IgG1, V domains shown)
VH: EVQLVQSGAEVKKPGASVKVSCKASGYTFTDYNMDWVKQAPGQGLEWIGDINPNNADTIYNQKFKGRVTLTVDKSTSTVYMELSSLRSEDTAVYYCARGDYDGYYPVYYAMDYWGQGTTVTVSS
VL: ENVLTQSPATLSLSPGERATLSCRASSSVSSSYLHWYQQKPGQAPRLLIFSTSNLAAGIPARFSGSGSGTDYTLTISSLEPEDFAVYYCQQYSGYPLTFGGGTKVEIK
B4 returned an MFI in assay [6] of 11800 MFI. In assay [7], this molecule yielded an EC50 of 0.38 nM and a Maximum OD450 value of 3.38 OD450. Besides, in assay [8], the EC50 was determined as 5.67 nM and the Maximum mean fluorescence intensity came to 18300 MFI. In [9], this molecule returned an MFI of 250 MFI. In assay [10], this molecule returned a Selective window (MFI A431/Hepatocytes) of 47 fold. In assay [11], this molecule came in with a Kd of 200 nM, a koff of 0.00405 s⁻¹ and a kon of 20300 M⁻¹ s⁻¹. For the same molecule, in assay [12], the Kd stood at 1.54 nM, the koff amounted to 0.00014 s⁻¹ and the kon was 90600 M⁻¹ s⁻¹.
